The results in this text go back to US20190010205A1.

The assay deals with human prolactin receptor (hPRLR) expressed on mouse BaF3 cells (BaF3/hPRLR cells) (human) (UniProt P16471). Put plainly: cell-based or functional assay.
Sequence of human prolactin receptor (hPRLR) expressed on mouse BaF3 cells (BaF3/hPRLR cells) (human) (P16471 25-622): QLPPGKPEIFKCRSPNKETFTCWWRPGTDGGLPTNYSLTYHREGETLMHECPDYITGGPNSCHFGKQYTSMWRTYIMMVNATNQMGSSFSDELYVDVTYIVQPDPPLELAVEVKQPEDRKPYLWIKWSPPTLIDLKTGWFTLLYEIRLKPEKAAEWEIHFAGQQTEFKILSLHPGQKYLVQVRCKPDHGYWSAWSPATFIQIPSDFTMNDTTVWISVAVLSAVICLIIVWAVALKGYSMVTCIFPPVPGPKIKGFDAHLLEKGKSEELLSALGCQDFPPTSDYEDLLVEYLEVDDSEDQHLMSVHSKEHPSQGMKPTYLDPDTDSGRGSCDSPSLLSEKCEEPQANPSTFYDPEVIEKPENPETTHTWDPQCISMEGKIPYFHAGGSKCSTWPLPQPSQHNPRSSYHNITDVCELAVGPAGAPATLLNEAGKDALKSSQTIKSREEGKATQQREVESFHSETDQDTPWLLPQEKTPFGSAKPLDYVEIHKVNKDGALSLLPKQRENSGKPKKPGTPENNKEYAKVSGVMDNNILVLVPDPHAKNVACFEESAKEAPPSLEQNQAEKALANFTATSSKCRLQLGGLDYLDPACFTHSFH

The substance “human prolactin (hPRL, R&D System Inc.) (from UniProt P01236 29-227) (ligand)” yielded an EC50, growth of BaF3/hPRLR cells (positive control) of 2.1 pM.
